Measurements taken from patent US20090203530A1, “Polymer evolution via templated synthesis” (priority 2005, published 2009).

How the values were obtained:
papain [1] = target: T1, papain (Carica papaya, UniProt P00784); test: Fluorescence polarization-based papain binding assay; details: BFL-labelled controls; varying concentrations of papain
T1 construct: purchased Sigma-Aldrich
T1 sequence (P00784 134-345): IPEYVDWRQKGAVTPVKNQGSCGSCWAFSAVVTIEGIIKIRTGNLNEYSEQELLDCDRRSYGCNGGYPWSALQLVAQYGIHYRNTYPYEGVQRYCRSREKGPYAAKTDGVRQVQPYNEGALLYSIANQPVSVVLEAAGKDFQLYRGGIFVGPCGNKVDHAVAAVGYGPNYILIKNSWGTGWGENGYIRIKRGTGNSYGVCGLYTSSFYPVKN
Method: Purified PNA 18-mers prepared as described above were reacted with BODIPY-fluorescein succinamidyl ester (BFL-SE, Molecular Probes). For each labelling reaction, 25 μL of a 250-400 μM stock solution of PNA in H2O was mixed with 25 μL 0.2 M sodium bicarbonate (pH 8.0) plus 2.5 μL of a 20 mg/mL solution of BFL-SE in DMSO. After four hours at 25° C., 50 μL DMSO was added, and the labelling reaction was incubated for an additional 4 hours. The labelled product was purified by reverse-phase HPLC as described above. The addition of the BFL fluorophore on the N-terminal primary amine typically delayed the elution time of the PNA by ˜5 min, and the absorption of the eluted peak was monitored both at 260 nm and at 470 nm. Masses of labelled peptides were confirmed by MALDI mass spectrometry, as follows:
Fluorescence polarization-based papain affinity assays were carried out as follows. BFL-labelled PNA was used at concentrations between 5 nM and 10 nM. […] After the binding reactions were equilibrated (4 hours at 25° C.), they were loaded onto a Nunc opaque black 384-well plate, and fluorescence polarization was measured using the Analyst AD system (Molecular Devices) with a fluorescein filter. Fluorescence polarization data in FIGS. 5B and 6C is shown as the change in fluorescence polarization (calculated relative to the output in the absence of protein) as a function of papain concentration. […]

papain [2] = target: T1, papain; test: Enrichment assay by papain affinity selection of translated template mixtures; format: binding
Method: The methods used for in vitro papain affinity selection have been reported previously (Giesen (1998) NUCLEIC ACIDS RES. 26, 5004-5006). Papain-conjugated sepharose beads (50 μL) were prepared according to this protocol and combined with […] of translated and displaced PNA library. After 4 hours at 4° C. with slow mixing, the beads were filtered, washed three times with high salt buffer (50 mM Tris pH 7.5, 0.5 M NaCl), once with low salt buffer (50 mM Tris pH 7.5, 0.1 M NaCl), and resuspended in 50 μL papain selection buffer (50 mM Tris pH 7.5, 100 mM NaCl, 1 mM EDTA). One fifth of the beads were removed for PCR as described below.
The remaining beads (40 μL) were heated for 15 min at 95° C., cooled to 60° C., supplemented with an equal volume of fresh papain-linked sepharose beads; cooled rapidly to 4° C., and the selection was repeated. This protocol was repeated three times (four rounds total) for the first-generation selection (FIG. 4A) and was repeated twice (three rounds total) for the second-generation selection (FIG. 6A). After each round of affinity selection, PCR was performed using one fifth of the total beads. Filtered beads were resuspended in 18 μL NEB buffer 4 with BSA, 1 μL Hha I, and 1 μL HinPI I (all restriction endonucleases purchased from New England Biolabs). Reactions were incubated for 1.5 hours at 37° C., then added directly into 80 μL PCR master mix containing 5 μL Taq buffer, 5 μL 25 mM MgCl2, 1 μL 100 μM primer 1, 1 μL 100 μM primer 2, 1 μL 25 mM dNTPs, and 1 μL Taq DNA polymerase and 54 μL H2O. Primer sequences are as follows:
For the enrichment experiments described in FIG. 5A, […] total template:mixture (500:1 M1 template:P1 template; or 500:1 U1 template:P1 template) was translated as described above using library translation conditions. The individual template sequences are as follows:
The translated products were displaced as described above, subjected to three rounds of selection against papain as described above, and the resulting bound DNA templates were digested and amplified by PCR as described above. […]

Molecule: CC1=CC(C)=[N+]2C1=Cc1ccc(CCC(=O)NCCN)n1[B-]2(F)F [BFL fluorophore, BFL-ethylenediamine]
- papain affinity (fluorescence polarization) (papain [1]): did not bind papain

B1: U1: unrelated library sequence, translated from template SEQ ID NO: 18 (conjugate)
DNA: TGCGACGGTGCGCACCGTCGCAAGTCAGTCACCCAATCACTCACGCATCCAGTCACCCAACCGGACAAGGTGCGCACCTTGTCC
modifications: DNA, backbone and methylation of C not given here; DNA template covalently linked to PNA translation product, further chemistry not fully specified
- enrichment after papain affinity selection (papain [2]; 500:1 ratio of M1:U1 DNA templates, translation, displacement, selection): no detectable enrichment

B2: P1 translation product: PNA 40-mer selected for papain binding, covalently linked to its DNA template (SEQ ID NO: 16) (conjugate)
DNA: TGCGACGGTGCGCACCGTCGCAAGCCATTCATGCATGCACCCAGGCATGCATTCATTCATGCGGACAAGGTGCGCACCTTGTCC
modifications: DNA, backbone and methylation of C not given here; DNA template covalently linked to PNA translation product, further chemistry not fully specified
- enrichment after papain affinity selection (papain [2]; 500:1 M1:P1 template mixture, translated, displaced, three rounds of selection, PCR and restriction digestion): ~500 fold
- enrichment after papain affinity selection (papain [2]; 500:1 mixture of U1 (unrelated):P1 templates): 500 fold
